Drawing on article PMC5130146 (Nature structural & molecular biology, 2016), this text covers Kd for seven molecules.

Like-named read-outs stand apart in the source and are kept apart here. Some results are limits rather than exact numbers.

What all share (test): ITC
(Isothermal titration calorimetry measures the heat released or taken up as one component is titrated into another.)

Assay [1] concerns the target AP2 µ2 C-terminal subdomain (C-µ2), residues 160-435 of rat µ2 (rat) (UniProt P84092).
Assay [2] deals with T1, AP2 µ2 C-terminal subdomain (C-µ2), residues 160-435 of rat µ2 (rat, UniProt P84092 160-435).
T1 sequence: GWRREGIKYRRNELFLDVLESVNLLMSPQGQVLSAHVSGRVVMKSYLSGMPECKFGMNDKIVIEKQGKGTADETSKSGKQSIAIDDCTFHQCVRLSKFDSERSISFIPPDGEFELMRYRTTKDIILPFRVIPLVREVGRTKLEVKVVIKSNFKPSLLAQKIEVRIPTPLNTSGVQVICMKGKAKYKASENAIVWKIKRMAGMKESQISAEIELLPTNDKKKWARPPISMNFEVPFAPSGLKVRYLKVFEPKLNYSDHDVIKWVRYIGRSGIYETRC

Assay [3] concerns the target T1, AP2 µ2 C-terminal subdomain (C-µ2), …. The source holds these as a separate data set.

By Kd is commonly meant the free concentration of one partner at which half of the binding sites on the other are occupied at equilibrium, for simple one-to-one binding. Read a low Kd as tighter binding.

integrin α4 peptide (QYKSILQE): the Kd in assay [1] worked out at 72 µM.
On the same count and under the same terms, the same measure for EGFR peptide (FYRLMS): 20 µM.
With YKLGFFKRSLPYGTAMEKAQLKPPATSDA [α5-integrin peptide (YKLGFFKRSLPYGTAMEKAQLKPPATSDA)], the Kd in assay [2] is > 300 µM.
Same read-out and setting: the same measure for KLLMIIHDRREFAKFEKEKMNAKWDTGENPIYKSAVTTVVNPKYEGK [β1-integrin peptide]: > 300 µM.
For DYQRLN [TGN38 peptide (DYQRLN)], the Kd in assay [3] is ~4 µM.
Same read-out and setting: to SYTRFS [transferrin receptor peptide (SYTRFS)] belongs ~15 µM.
In the case of WKLGFFKRKYEKMTKNPDEIDETTELSS [α2 integrin peptide (WKLGFFKRKYEKMTKNPDEIDETTELSS)], the Kd in assay [2] was ~50 µM.
